This is an account of results in the supplement of paper PMC9112550, “Optimization of the antimicrobial peptide Bac7 by deep mutational scanning” (BMC Biology, 2022).

The subject of this data set is Escherichia coli TOP10. As to the kind of experiment: shrunken log2 fold change of peptide-encoding DNA abundance (4.5 h post-induction vs induction); higher = less antimicrobial activity (less host growth inhibition). The settings on record: time post-induction: 4.5 h; library: site-saturation at positions 5, 18, 19, 20.
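Also: peptides expressed intracellularly from a pBAD plasmid library in pooled LB shake-flask culture, induced with 0.3% L-arabinose, DNA abundance read by NGS, three biological replicates, DESeq2 with apeglm shrinkage.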

Regarding RRIRDRPPRLPRPRPRPQMMPRP, the “shrunken log2 fold change” value is -0.211. Under RRIRDRPPRLPRPRPRPGYFPRP stands -1.25; under RRIRHRPPRLPRPRPRPLWHPRP, -0.138.

As to RRIRGRPPRLPRPRPRPFDIPRP, the “shrunken log2 fold change” value came out at 0.198. With RRIRERPPRLPRPRPRPLRGPRP, the “shrunken log2 fold change” value is 0.529.

With RRIRYRPPRLPRPRPRPWPQPRP, the “shrunken log2 fold change” value stood at 0.0526.

Regarding RRIRHRPPRLPRPRPRPEYWPRP, the “shrunken log2 fold change” value was -0.0523.

As for RRIRNRPPRLPRPRPRPNMAPRP, the “shrunken log2 fold change” value is -0.214.

Turning to RRIRMRPPRLPRPRPRPQHQPRP, the “shrunken log2 fold change” value is 0.214. Under RRIRKRPPRLPRPRPRPNFIPRP stands -0.144. In the case of RRIRTRPPRLPRPRPRPKRIPRP, the “shrunken log2 fold change” value was determined as 0.0762. Regarding RRIRHRPPRLPRPRPRPECIPRP, the “shrunken log2 fold change” value is -0.00992.

For RRIRYRPPRLPRPRPRPEHIPRP, the “shrunken log2 fold change” value was -0.0114.

RRIRFRPPRLPRPRPRPCHMPRP: the “shrunken log2 fold change” value was -0.285. Consider RRIRLRPPRLPRPRPRPPEIPRP, for which the “shrunken log2 fold change” value worked out at 0.196. On to RRIRIRPPRLPRPRPRPQRSPRP, for which the “shrunken log2 fold change” value is -0.0897.

On to RRIRSRPPRLPRPRPRPSHQPRP, for which the “shrunken log2 fold change” value was -0.284. As to RRIRLRPPRLPRPRPRPKVMPRP, the “shrunken log2 fold change” value is -0.044. Turning to RRIRWRPPRLPRPRPRPVLQPRP, the “shrunken log2 fold change” value turned out to be 0.177. With RRIRNRPPRLPRPRPRPCMIPRP, the “shrunken log2 fold change” value is -0.143.

Take RRIRLRPPRLPRPRPRPMMKPRP: the “shrunken log2 fold change” value is -0.0811. As to RRIRPRPPRLPRPRPRPLQPPRP, the “shrunken log2 fold change” value came out at 0.273. Regarding RRIRMRPPRLPRPRPRPQAWPRP, the “shrunken log2 fold change” value is -0.0331. As to RRIRFRPPRLPRPRPRPEINPRP, the “shrunken log2 fold change” value is -0.00788.

For RRIRHRPPRLPRPRPRPCNDPRP, the “shrunken log2 fold change” value is -0.283. For RRIRNRPPRLPRPRPRPCSFPRP, the “shrunken log2 fold change” value was -0.217.

In the case of RRIRLRPPRLPRPRPRPPAVPRP, the “shrunken log2 fold change” value amounted to 0.341.

With RRIRKRPPRLPRPRPRPLFRPRP, the “shrunken log2 fold change” value worked out at 0.696.

As to RRIRERPPRLPRPRPRPRVLPRP, the “shrunken log2 fold change” value turned out to be 0.161.

For RRIRQRPPRLPRPRPRPPIAPRP, the “shrunken log2 fold change” value is 0.104. In the case of RRIRIRPPRLPRPRPRPWVNPRP, the “shrunken log2 fold change” value is -0.722. RRIRWRPPRLPRPRPRPYCDPRP: the “shrunken log2 fold change” value is -0.218. Under RRIRVRPPRLPRPRPRPATEPRP stands -0.0882; under RRIRARPPRLPRPRPRPKLMPRP, 0.357; under RRIRNRPPRLPRPRPRPGSHPRP, -0.291. As to RRIRYRPPRLPRPRPRPLIKPRP, the “shrunken log2 fold change” value is -0.386.

As to RRIRWRPPRLPRPRPRPWFDPRP, the “shrunken log2 fold change” value was 2.76. Under RRIRERPPRLPRPRPRPKNEPRP stands -0.315. With RRIRIRPPRLPRPRPRPQMWPRP the figure was -0.171. For RRIRRRPPRLPRPRPRPNNQPRP, the “shrunken log2 fold change” value was -0.0752.

As to RRIRCRPPRLPRPRPRPPMKPRP, the “shrunken log2 fold change” value was found to be 0.242. For the sequence RRIRERPPRLPRPRPRPPLRPRP, the “shrunken log2 fold change” value was 0.135.

RRIRWRPPRLPRPRPRPDFYPRP: the “shrunken log2 fold change” value was -0.11. Regarding RRIRLRPPRLPRPRPRPWCCPRP, the “shrunken log2 fold change” value was -0.234. For RRIRCRPPRLPRPRPRPQHSPRP, the “shrunken log2 fold change” value was -0.764.

As for RRIRYRPPRLPRPRPRPNHAPRP, the “shrunken log2 fold change” value is -0.142.

As for RRIRLRPPRLPRPRPRPSKFPRP, the “shrunken log2 fold change” value is -0.276.

Regarding RRIRSRPPRLPRPRPRPCWKPRP, the “shrunken log2 fold change” value is -0.169. Take RRIRERPPRLPRPRPRPWIQPRP: the “shrunken log2 fold change” value was -0.0122. In the case of RRIRNRPPRLPRPRPRPSCLPRP, the “shrunken log2 fold change” value is -0.4. On to RRIRVRPPRLPRPRPRPNNMPRP, for which the “shrunken log2 fold change” value was -0.537. Take RRIRHRPPRLPRPRPRPELRPRP: the “shrunken log2 fold change” value amounted to 0.0303. For the sequence RRIRCRPPRLPRPRPRPFGYPRP, the “shrunken log2 fold change” value was -0.174. Under RRIRWRPPRLPRPRPRPITNPRP stands -0.0654; under RRIRHRPPRLPRPRPRPQVQPRP, 0.0789; under RRIRKRPPRLPRPRPRPILSPRP, 0.00626. Under RRIRMRPPRLPRPRPRPLCSPRP stands -0.0295; under RRIRYRPPRLPRPRPRPKKRPRP, -0.11; under RRIRRRPPRLPRPRPRPCVKPRP, 0.252.

For the sequence RRIRERPPRLPRPRPRPTVVPRP, the “shrunken log2 fold change” value was -0.188. With RRIRDRPPRLPRPRPRPMTAPRP the figure was -0.0214; with RRIRIRPPRLPRPRPRPPLGPRP, 0.164. Consider RRIRARPPRLPRPRPRPCGGPRP, for which the “shrunken log2 fold change” value stood at 0.425.

With RRIRHRPPRLPRPRPRPESDPRP, the “shrunken log2 fold change” value was -0.227. With RRIRSRPPRLPRPRPRPQAFPRP, the “shrunken log2 fold change” value is -0.114. Turning to RRIRNRPPRLPRPRPRPTNHPRP, the “shrunken log2 fold change” value was -0.527. In the case of RRIRGRPPRLPRPRPRPMVRPRP, the “shrunken log2 fold change” value was 0.03. In the case of RRIRDRPPRLPRPRPRPDTKPRP, the “shrunken log2 fold change” value worked out at 0.0114. In the case of RRIRGRPPRLPRPRPRPSGGPRP, the “shrunken log2 fold change” value was 0.391.

As to RRIRHRPPRLPRPRPRPSCAPRP, the “shrunken log2 fold change” value stood at 0.137. As for RRIRIRPPRLPRPRPRPHYGPRP, the “shrunken log2 fold change” value is -0.223. For RRIRARPPRLPRPRPRPMVRPRP, the “shrunken log2 fold change” value was found to be 0.348. Consider RRIRPRPPRLPRPRPRPVFAPRP, for which the “shrunken log2 fold change” value amounted to 0.155. In the case of RRIRERPPRLPRPRPRPVDSPRP, the “shrunken log2 fold change” value is -0.0113. With RRIRSRPPRLPRPRPRPWPEPRP, the “shrunken log2 fold change” value came to 0.519. For the sequence RRIRQRPPRLPRPRPRPVTKPRP, the “shrunken log2 fold change” value is -0.0142. Take RRIRTRPPRLPRPRPRPSCNPRP: the “shrunken log2 fold change” value is -0.768. Turning to RRIRKRPPRLPRPRPRPLRPPRP, the “shrunken log2 fold change” value was determined as 1.01. Regarding RRIRQRPPRLPRPRPRPDGFPRP, the “shrunken log2 fold change” value was -0.0107. For the sequence RRIRARPPRLPRPRPRPFLFPRP, the “shrunken log2 fold change” value was found to be 0.162. Under RRIRTRPPRLPRPRPRPTRSPRP stands -0.111; under RRIRERPPRLPRPRPRPIYRPRP, -0.565. For the sequence RRIRHRPPRLPRPRPRPICLPRP, the “shrunken log2 fold change” value was -0.225. Turning to RRIRIRPPRLPRPRPRPKADPRP, the “shrunken log2 fold change” value came to 0.204. In the case of RRIRFRPPRLPRPRPRPTVKPRP, the “shrunken log2 fold change” value was -0.163.

Take RRIRMRPPRLPRPRPRPMKTPRP: the “shrunken log2 fold change” value is -0.00191.

Turning to RRIRLRPPRLPRPRPRPYPYPRP, the “shrunken log2 fold change” value was -0.076. Under RRIRCRPPRLPRPRPRPPRYPRP stands 0.753; under RRIRHRPPRLPRPRPRPLYHPRP, -0.198; under RRIRQRPPRLPRPRPRPACCPRP, 0.162. For RRIRTRPPRLPRPRPRPVTGPRP, the “shrunken log2 fold change” value is -0.083.

Take RRIRMRPPRLPRPRPRPDTVPRP: the “shrunken log2 fold change” value worked out at 0.00533.

Take RRIRSRPPRLPRPRPRPQTFPRP: the “shrunken log2 fold change” value is -0.136. With RRIRLRPPRLPRPRPRPDNMPRP, the “shrunken log2 fold change” value is -0.519.

Regarding RRIRYRPPRLPRPRPRPQYWPRP, the “shrunken log2 fold change” value was -0.696. For the sequence RRIRMRPPRLPRPRPRPGEVPRP, the “shrunken log2 fold change” value is 0.884. As to RRIRTRPPRLPRPRPRPCPCPRP, the “shrunken log2 fold change” value is -0.366. For the sequence RRIRYRPPRLPRPRPRPADDPRP, the “shrunken log2 fold change” value was -0.0179.

Take RRIRERPPRLPRPRPRPYNPPRP: the “shrunken log2 fold change” value turned out to be 0.00932. As for RRIRWRPPRLPRPRPRPCHKPRP, the “shrunken log2 fold change” value was -0.0267. For the sequence RRIRMRPPRLPRPRPRPFTSPRP, the “shrunken log2 fold change” value was -0.0967.

Turning to RRIRCRPPRLPRPRPRPAKTPRP, the “shrunken log2 fold change” value is -0.0664. RRIRPRPPRLPRPRPRPAEVPRP: the “shrunken log2 fold change” value is -0.0315. On to RRIRERPPRLPRPRPRPGSFPRP, for which the “shrunken log2 fold change” value was 0.0492.

Take RRIRRRPPRLPRPRPRPRHDPRP: the “shrunken log2 fold change” value is 0.0104. For the sequence RRIRLRPPRLPRPRPRPNWDPRP, the “shrunken log2 fold change” value amounted to 0.14. As to RRIRFRPPRLPRPRPRPVVSPRP, the “shrunken log2 fold change” value was found to be 0.0235. On to RRIRQRPPRLPRPRPRPFYWPRP, for which the “shrunken log2 fold change” value was -0.418.

In the case of RRIRIRPPRLPRPRPRPCLDPRP, the “shrunken log2 fold change” value is -0.0653.

In the case of RRIRMRPPRLPRPRPRPHAHPRP, the “shrunken log2 fold change” value was -0.0269. As for RRIRVRPPRLPRPRPRPNFRPRP, the “shrunken log2 fold change” value was found to be 0.19.

Regarding RRIRARPPRLPRPRPRPGLDPRP, the “shrunken log2 fold change” value turned out to be 0.419. As to RRIRARPPRLPRPRPRPNVGPRP, the “shrunken log2 fold change” value worked out at 0.251. Turning to RRIRPRPPRLPRPRPRPNFMPRP, the “shrunken log2 fold change” value was 0.109. For RRIRSRPPRLPRPRPRPLVIPRP, the “shrunken log2 fold change” value is -0.281.

Take RRIRSRPPRLPRPRPRPRMNPRP: the “shrunken log2 fold change” value amounted to 0.079. For RRIRKRPPRLPRPRPRPMHIPRP, the “shrunken log2 fold change” value amounted to 0.078.

On to RRIRSRPPRLPRPRPRPRTSPRP, for which the “shrunken log2 fold change” value came out at 0.211. With RRIRKRPPRLPRPRPRPHFSPRP the figure was -0.0531. RRIRWRPPRLPRPRPRPRSYPRP: the “shrunken log2 fold change” value was -0.0435. Regarding RRIRMRPPRLPRPRPRPKSDPRP, the “shrunken log2 fold change” value turned out to be 0.466.

Regarding RRIRDRPPRLPRPRPRPWNSPRP, the “shrunken log2 fold change” value is -0.237. Under RRIRPRPPRLPRPRPRPNPCPRP stands -0.165. As for RRIRWRPPRLPRPRPRPETIPRP, the “shrunken log2 fold change” value came out at 0.322. As for RRIRFRPPRLPRPRPRPFVDPRP, the “shrunken log2 fold change” value was -0.121.
